Literature values as cited in article PMC8544432.
pKd: −log10 of the molar value. Like-named read-outs stand apart in the source and are kept apart here.

What was measured:
[1] = biological target: PBX1 (Homo sapiens) (UniProt P40424)
[2] = biological target: PBX1 (Homo sapiens) (UniProt P40424); remark: listed apart in the source

Chain of UniProt P40424 (P40424 whole entry): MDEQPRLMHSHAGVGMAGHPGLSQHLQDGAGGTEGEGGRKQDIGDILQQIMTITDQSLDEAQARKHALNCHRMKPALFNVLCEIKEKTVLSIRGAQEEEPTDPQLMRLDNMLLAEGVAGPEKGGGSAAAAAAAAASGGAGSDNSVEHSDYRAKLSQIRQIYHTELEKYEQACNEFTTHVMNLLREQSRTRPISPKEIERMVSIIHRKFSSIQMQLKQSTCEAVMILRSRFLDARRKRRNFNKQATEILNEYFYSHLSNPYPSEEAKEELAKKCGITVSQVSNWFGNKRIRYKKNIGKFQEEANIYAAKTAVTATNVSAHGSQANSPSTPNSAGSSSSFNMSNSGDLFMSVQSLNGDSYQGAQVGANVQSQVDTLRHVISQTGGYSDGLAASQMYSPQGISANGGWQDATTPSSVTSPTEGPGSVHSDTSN

Row | Substance | pKd [1] | pKd [2]
1 | PREP1 (from UniProt P55347) | 7.74 | 
2 | MEIS1 (from UniProt O00470) |  | 7.10
